Here are results for three molecules from PMC9542197 (Chembiochem, 2022).

Data set [1] concerns the target T1, TmMtaD (SAH deaminase from Thermotoga maritima) (Thermotoga maritima, UniProt Q9X034).
T1 sequence (Q9X034 1-406): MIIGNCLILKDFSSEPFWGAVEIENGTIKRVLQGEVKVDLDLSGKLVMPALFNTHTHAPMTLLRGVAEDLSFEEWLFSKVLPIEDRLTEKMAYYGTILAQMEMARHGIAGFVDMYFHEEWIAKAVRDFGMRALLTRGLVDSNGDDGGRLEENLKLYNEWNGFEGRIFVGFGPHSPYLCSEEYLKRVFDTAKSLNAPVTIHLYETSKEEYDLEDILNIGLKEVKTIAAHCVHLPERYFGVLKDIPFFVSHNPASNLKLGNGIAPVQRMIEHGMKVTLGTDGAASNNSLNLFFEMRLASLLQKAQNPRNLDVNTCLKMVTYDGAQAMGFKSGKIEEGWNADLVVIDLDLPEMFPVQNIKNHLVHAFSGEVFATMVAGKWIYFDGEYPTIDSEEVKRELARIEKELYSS
As to the kind of experiment: GDH-coupled NADH oxidation at […] nm. To be noted: 50 mM potassium phosphate pH 7.5, 50 mM KCl, 20 mM MgCl2. Format: biochemical.

The test system of data set [2] is NCCc1ccc(O)c(O)c1. As to the kind of experiment: purified protein. The conditions noted are these: 200 μM SAM, 50 mM HEPES pH 7.5, 100 mM KCl, 20 mM MgCl2, 25 °C.
Substrate in data set [3]: NCCc1ccc(O)c(O)c1
Nature of the data set: purified protein. The conditions noted are these: 200 μM SAM, 50 mM HEPES pH 7.5, 100 mM KCl, 20 mM MgCl2, 25 °C. Format: biochemical, Rattus norvegicus.

As usually defined, the Km is the substrate concentration at which the rate is half of its maximum. On to `Nc1ncnc2c1ncn2[C@@H]1O[C@H](CSCC[C@H](N)C(=O)O)[C@@H](O)[C@H]1O` [SAH], for which the Km in data set [1] is 180 ± 60 µM.
One may read the kcat as the maximal rate divided by the concentration of active sites. For the molecule “MxSafC (SafC O-MT from Myxococcus xanthus) (Myxococcus xanthus)”, in data set [2], the Km worked out at 270 ± 14 µM and the kcat was 0.039 ± 0.001 s⁻¹.

B1: RnCOMT (catechol-O-MT from Rattus norvegicus) (Rattus norvegicus) (protein)
chain: MGDTKEQRILRYVQQNAKPGDPQSVLEAIDTYCTQKEWAMNVGDAKGQIMDAVIREYSPSLVLELGAYCGYSAVRMARLLQPGARLLTMEMNPDYAAITQQMLNFAGLQDKVTILNGASQDLIPQLKKKYDVDTLDMVFLDHWKDRYLPDTLLLEKCGLLRKGTVLLADNVIVPGTPDFLAYVRGSSSFECTHYSSYLEYMKVVDGLEKAIYQGPSSPDKS
Take B1: in data set [3], the Michaelis constant (Km) stood at 144 ± 15 µM and the kcat turned out to be 0.072 ± 0.002 s⁻¹.
